Common to all, as to experiment: EMSA
Details in all cases: EMSA: 10 mM Tris-HCl pH 8.0, 60 mM NaCl, 10 mM KCl, 5 mM MgCl2, 1 mM DTT, 0.05% NP40, 10% glycerol, footprint: 5 mM Tris-HCl pH 8.0, 60 mM NaCl, 5 mM KCl

The target in series [1] is T1, HspR (Campylobacter jejuni NCTC 11168) (UniProt Q0P926).
T1 sequence: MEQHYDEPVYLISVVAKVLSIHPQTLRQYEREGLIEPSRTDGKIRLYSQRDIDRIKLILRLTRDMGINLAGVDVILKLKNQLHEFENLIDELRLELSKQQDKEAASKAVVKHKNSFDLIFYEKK

Series [2] deals with T2, HrcA;HspR (Campylobacter jejuni NCTC 11168;Campylobacter jejuni NCTC 11168) (UniProt Q9PPG2+Q0P926).
T2 sequence 1: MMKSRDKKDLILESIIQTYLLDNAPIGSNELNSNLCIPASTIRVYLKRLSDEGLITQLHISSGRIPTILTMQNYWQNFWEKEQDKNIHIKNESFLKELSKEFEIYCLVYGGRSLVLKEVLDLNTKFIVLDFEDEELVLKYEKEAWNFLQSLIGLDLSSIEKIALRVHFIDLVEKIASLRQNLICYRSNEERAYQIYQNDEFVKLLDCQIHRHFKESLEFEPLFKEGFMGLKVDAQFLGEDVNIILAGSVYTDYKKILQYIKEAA
T2 sequence 2: T1 sequence

For series [3], the target named is T3, HrcA (Campylobacter jejuni NCTC 11168) (UniProt Q9PPG2).
T3 sequence: T2 sequence 1

As to “GGATCCCTTGCAGCAAATAAAGCACTTGCTAAACTTAATGATAAAAAAATCTTTTTCATTTCATTTCCTTTTGTTCTTAAAGATAAATTATCTCGTAAAATATTTTACTGTCTTCATAGTATAAAACCGAAAATTTACAAAATTGTAAATAAAACCTTGAGTGATAAAAATTTATAAAACTTGATTGACTTAGGCTAAAGTTTATGTTATAATTTAATCCTCTATATAATCAAGTAAAAATTTTTAAGGAAATATAACATGAATAGTTTATACGAAACTCTTGGAGTTAGCCTCGAG (double strand) [Pcbp promoter probe (EMSA)]”, in series [1], the binding result is “binds”.
As for “GGATCCGCACAACAACAAAAGCTACAATGCCATAAAAAATCTTTTTCATTTTTATCCTTTAGTTTATTTTATAAAATAACTTTAGTCTATAAAACTAAACTTTTATAAATATTTTAATTTAAAGTATTGACAAAATTCATTTTTTATAGTATGATATTATCACTCTAAATTAAAGAGTGCTAAAATCAATATTTTTAAGGATGGACAAAAATGAATTTTCAACCTTTAGGAAAGCGTGTTCTAGTTAAACGCGCTCGAG (double strand) [Pgro promoter probe (EMSA)]”, the binding result in series [2], in series [3] and in series [1] was “binds” in each case.
